The results in this text go back to article PMC3909270, “The basic keratin 10-binding domain of the virulence-associated pneumococcal serine-rich protein PsrP adopts a novel MSCRAMM fold” (Open Biology, 2014).

B1: Strep-Tag-II BR_(187–385) (KRT10-binding domain of the pneumococcal serine-rich repeat protein PsrP) [S. pneumoniae TIGR4] / KRT10 tail-rod-2B domain (KRT10-TRD) [human] (parent complex)
chain 1: FSGNTIVNGAPAINASLNIAKSETKVYTGEGVDSVYRVPIYYKLKVTNDGSKLTFTYTVTYVNPKTNDLGNISSMRPGYSIYNSGTSTQTMLTLGSDLGKPSGVKNYITDKNGRQVLSYNTSTMTTQGSGYTWGNGAQMNGFFAKKGYGLTSSWTVPITGTDTSFTFTPYAARTDRIGINYFNGGGKVVESSTTSQSLS
chain 2: LKQSLEASLAETEGRYCVQLSQIQAQISALEEQLQQIRAETECQNTEYQQLLDIKIRLENEIQTYRSLLEGEGSSGGGGRGGGSFGGGYGGGSSGGGSSGGGHGGGHGGSSGGGYGGGSSGGGSSGGGYGGGSSSGGHGGSSSGGYGGGSSGGGGGGYGGGSSGGGSSSGGGYGGGSSSGGHKSSSSGSVGESSS

The variants in this assay derive from B1. Description: ELISA; KRT10-TRD coated in wells of ELISA plates; parent: 1; read off a plot. On the technique in general: In an ELISA, binding on a coated surface is turned into a signal by an enzyme label.
As to chain 1 N135A, the response was around 1.1 normalized absorbance. The same measure for chain 1 K45A: around 0.97 normalized absorbance.
